Reference: patent publication US20230071321A1 (VIB VZW, published 2023)
Where two headings read alike, the source gives them in different places. Values belong to the binder of their own block, whether it stands above or below them.

Columns and labels:
[1] = biological target: T1, hCXCR4Rho1D4 (full-length human CXCR4 receptor with C-terminal Rho1D4 tag) (human, UniProt P61072 6-352 (Pan troglodytes entry)); experiment: cell-based or functional assay
[2] = biological target: T1, hCXCR4Rho1D4 (full-length human CXCR4 …); experiment: cell-based or functional assay; remark: listed apart in the source
[3] = biological target: T1, hCXCR4Rho1D4 (full-length human CXCR4 …); experiment: control Nanobody co-expressed with hCXCR4Rho1D4 in P. pastoris; receptor level read by anti-Rho1D4 immunoblot
From the text: Equal amounts of total membrane protein (determined by a BCA assay) of induced P. pastoris GS115 clones, expressing only the human CXCR4 receptor, or in combination with a anti-hCXCR4 Nanobody (NbCA4142), or in combination with the negative control Nanobody (NbCA4910), were run on a 12% SDS-PAGE gel and blotted on a nitrocellulose membrane. The blot was developed with a primary mouse anti-Rho1D4 monoclonal antibody and a secondary Dylight (800 nm) goat anti-mouse IgG on an LI-COR odyssey system. For the hCXCR4-specific Nb co-expressing clone we detect more of the anti-Rho1D4 immunoreactive membrane protein band compared to the GS115hCXCR4 clone without Nb co-expression. […] Exact quantification has been calculated by the Odyssey software by measuring relative fluorescent signals (Table 4). It can, thus, be concluded that the increase in receptor expression can be attributed to the Nanobody-specific interaction with the receptor.
Protein samples were analyzed by SDS-poly-acrylamide gel electrophoresis, according to the Laemmli (Laemmli et al., 1970, Nature, 227:680) or the Tricine method (Schagger et al., 2006, Nat. Protoc. 1:16-22). Before loading on gel, the samples were mixed with 5×Laemmli (60 mM Tris-HCl pH 6,8; 2% SDS, 10% glycerol, 5% β-ME; 0.01% bromophenol blue) and heated for 10 minutes at 95° C. (only the ECM samples, not the membrane protein preparations). […]

T1 sequence (P61072 other isoform, or with tags, fused parts or gaps limits assumed): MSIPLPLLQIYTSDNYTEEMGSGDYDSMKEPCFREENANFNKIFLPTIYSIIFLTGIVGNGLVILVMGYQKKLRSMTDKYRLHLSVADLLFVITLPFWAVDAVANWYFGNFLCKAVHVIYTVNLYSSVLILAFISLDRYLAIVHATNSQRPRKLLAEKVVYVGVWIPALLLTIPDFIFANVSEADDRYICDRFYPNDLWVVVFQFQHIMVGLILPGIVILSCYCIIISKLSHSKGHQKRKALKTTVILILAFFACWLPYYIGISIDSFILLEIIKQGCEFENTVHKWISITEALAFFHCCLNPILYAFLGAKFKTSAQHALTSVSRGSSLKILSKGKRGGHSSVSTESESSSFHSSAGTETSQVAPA

B1: Nanobody CA4143 (VHH)
VHH: QVQLQESGGGLVQPGGSLRLSCAASGFTFSSYAMSWVRQAPGKGLEWVSTINSGGRSANYADSVKGRLTISRDNAKNTLHLQMNSLKPEDTALYYCARPRSVSRNYVPLGYDYLGQGTQVTVSS
Factor improvement (relative hCXCR4 expression, anti-Rho1D4 immunoblot fluorescence) [1]: 3 fold

B2: Nanobody CA4140 (VHH)
VHH: QVQLQESGGGLVQPGGSLRLSCAASGSIFSINAMGWYRQAPGKQRELVAAITSGGSTNYADSVKGRFTISRDNAENTVYLQMNNLKPEDTAVYSCNAEGTSGSSRYRRRYEYWGKGTQVTVSS
Factor improvement (relative hCXCR4 expression, anti-Rho1D4 immunoblot fluorescence) [1]: 2.8 fold

B5: Nanobody CA4910 (VHH)
VHH: QVQLVESGGGLVQPGGSLRLSCAASGSFRSIVSMAWYRQAPGKQRELVASSNSGGSTNYADSVKGRFTISRDNAKNTVYLQMNSLKPEDTAVYWCNVQNRLPGFDAFSGRSIAETYWGQGTQVTVSS
notes: It was co-expressed in P. pastoris as a control; also called NbCA4910; Nb4910
Factor improvement (relative hCXCR4 expression, anti-Rho1D4 immunoblot fluorescence), clone 1 [2]: 0.4 fold
Factor improvement (relative hCXCR4 expression, anti-Rho1D4 immunoblot fluorescence), clone 2 [2]: 1.1 fold
Factor improvement (relative hCXCR4 expression, anti-Rho1D4 immunoblot fluorescence), clone 3 [2]: 1.2 fold
binding result [3]: no binding

More lines, now with the values ahead:

Factor improvement (relative hCXCR4 expression, anti-Rho1D4 immunoblot fluorescence) [1]: 1.3 fold
B3: Nanobody CA4500 (VHH)
VHH: QVQLQESGGGLVQAGGSLRLSCAASGSTSGIIAMGWYRQAPGKQRELVARISSGSSTNYADSVKGRFTVSRDNAKNTVYLQMNSLKPEDTAVYYCNAVRRGYRNDYNSWGQGTQVTVSS

Factor improvement (relative hCXCR4 expression, anti-Rho1D4 immunoblot fluorescence) [1]: 2.6 fold
Factor improvement (relative hCXCR4 expression, anti-Rho1D4 immunoblot fluorescence) [2]: 1.9 fold
B4: Nanobody CA4142 (VHH)
VHH: QVQLQESGGGLVRTGGSLRLSCAGSGSFFSINPMGWYRQAPGQQRELVATITGSGSTNYADSVKGRFTISRDNAKNTLYLQMNSLKPEDTAVYYCNAGYFDRIGRRYDRWGQGTQVTVSS
